Tested on: JNK inhibitor according to SEQ ID NO: 172 ("XG-104")

Substance: c-Jun N-terminal kinase (JNK) in primary mouse cortical neurons
- c-Jun phosphorylation (immunoblot), WT neurons stressed with 2 µM Aβ42, 10 µM XG-104: XG-104 showed -29% efficacy in order to decrease c-Jun phosphorylation (FIG. 55 C)

From US20200093883
